“And” between values parts separate entries of the source, which are not always exact repeats. Identical values can stand only once.

Among the data in PMC4586593 (The Journal of General Physiology, 2015) are Kd values, retold here.

This test has as its target actin from chicken pectoralis muscle (F-actin, TRITC-phalloidin labelled) (chicken, UniProt P68139 1-377). The experiment in a line: method of Cremo and Geeves.

B1: smooth muscle myosin S1 head (domain or fragment)
chain 1: SQKPLSDDEKFLFVDKNFVNNPLAQADWSAKKLVWVPSEKHGFEAASIKEEKGDEVTVELQENGKKVTLSKDDIQKMNPPKFSKVEDMAELTCLNEASVLHNLRERYFSGLIYTYSGLFCVVINPYKQLPIYSEKIIDMYKGKKRHEMPPHIYAIADTAYRSMLQDREDQSILCTGESGAGKTENTKKVIQYLAVVASSHKGKKDTSITQGPSFSYGELEKQLLQANPILEAFGNAKTVKNDNSSRFGKFIRINFDVTGYIVGANIETYLLEKSRAIRQAKDERTFHIFYYLIAGASEQMRNDLLLEGFNNYTFLSNGHVPIPAQQDDEMFQETLEAMTIMGFTEEEQTSILRVVSSVLQLGNIVFKKERNTDQASMPDNTAAQKVCHLMGINVTDFTRSILTPRIKVGRDVVQKAQTKEQADFAIEALAKAKFERLFRWILTRVNKALDKTKRQGASFLGILDIAGFEIFEINSFEQLCINYTNEKLQQLFNHTMFILEQEEYQREGIEWNFIDFGLDLQPCIELIERPTNPPGVLALLDEECWFPKATDTSFVEKLIQEQGNHAKFQKSKQLKDKTEFCILHYAGKVTYNASAWLTKNMDPLNDNVTSLLNQSSDKFVADLWKDVDRIVGLDQMAKMTESSLPSASKTKKGMFRTVGQLYKEQLTKLMTTLRNTNPNFVRCIIPNHEKRAGKLDAHLVLEQLRCNGVLEGIRICRQGFPNRIVFQEFRQRYEILAANAIPKGFMDGKQACILMIKALELDPNLYRIGQSKIFFRTGVLAHLEEERDLKITDVIIAFQAQCRGYLARKAFAKRQQQLTAMKVIQRNCAAYLKLRNWQWWRLFTKVKP
chain 2: CDFSEEQTAEFKEAFQLFDRTGDGKILYSQCGDVMRALGQNPTNAEVMKVLGNPKSDEMNLKTLKFEQFLPMMQTIAKNKDQGCFEDYVEGLRVFDKEGNGTVMGAEIRHVLVTLGEKMTEEEVEQLVAGHEDSNGCINYEELVRMVLSG
chain 3: SSKRAKAKTTKKRPQRATSNVFAMFDQSQIQEFKEAFNMIDQNRDGFIDKEDLHDMLASMGKNPTDEYLEGMMSEAPGPINFTMFLTMFGEKLNGTDPEDVIRNAFACFDEEASGFIHEDHLRELLTTMGDRFTDEEVDEMYREAPIDKKGNFNYVEFTRILKHGAKDKDD
In the case of B1, the Kd was 15 nM and 25 nM.
